Data published in publication PMC10881741, “Structural modifications toward improved lead-203/lead-212 peptide-based image-guided alpha-particle radiopharmaceutical therapies for neuroendocrine tumors” (European Journal of Nuclear Medicine and Molecular Imaging, 2023).
Where two headings read alike, the source gives them in different places.

How the values were obtained:
AR42J xenografts = test: SPECT/CT imaging with blocking by unlabeled peptide; format: in vivo, mice; settings: 11.1 MBq, 30 nmol unlabeled PSC-PEG2-TOC
Protocol: Serial SPECT/CT imaging was conducted at 3 h and 24 h post-administration. The imaging study was performed at the University of Iowa Small Animal Imaging Core using an INVEON trimodality SPECT/positron emission tomography (PET)/CT scanner (Siemens Preclinical, Knoxville, TN) equipped with medium-energy (0.3 mm) pinhole collimators. Data were reconstructed using three-dimensional ordered-subsets expectation maximization (OSEM-3D) algorithm with eight iterations and six subsets. Post-reconstruction images were smoothed with a 3D Gaussian kernel. Post-imaging biodistribution of the radiotracer in mice was obtained at 30 h post-administration.

[1] = In vivo biodistribution of ^203Pb-labeled peptides; parameters: species or system mice; settings: female, athymic nu/nu, mouse, intravenous, total radioactivity
Protocol: AR42J cells (5.0 × 10^6 cells/animal) were implanted subcutaneously on the left shoulder of female athymic nu/nu mice. […] Extra groups of mice were co-administered 37 kBq of ^203Pb-PSC-PEG2-TOC with DL-lysine (400 mg/kg) to determine the effect of amino acid on renal uptake of the radiopharmaceutical. Mice (n=3 per time point) were euthanized at 1, 3, and 24 h post-administration, and tumors and organs/tissues of interest were excised and weighed. The radioactivities of the samples were measured using the gamma counter.

SMILES: C[C@@H](O)[C@@H]1NC(=O)[C@H](CCCCN)NC(=O)[C@@H](Cc2c[nH]c3ccccc23)NC(=O)[C@H](Cc2ccc(O)cc2)NC(=O)[C@@H](NC(=O)[C@@H](Cc2ccccc2)NC(=O)CCOCCOCCNC(=O)CN2CCN(CC(=O)O)CCN(CC(N)=O)CCN(CC(=O)O)CC2)CSSC[C@@H](C(=O)N[C@H](CO)[C@@H](C)O)NC1=O [[^203Pb]Pb-PSC-PEG2-TOC, metal not drawn]
- Tumor uptake with co-administration of excessive unlabeled peptide (AR42J xenografts): almost completely blocked
- tissue uptake at 1 h ([1]; blood, 37 kBq, 1 h post-administration, read-out: Blood): 0.36 ± 0.1 %ID/g
- tissue uptake at 3 h ([1]; blood, 37 kBq, 3 h (No Lys), Table S4 study, read-out: Blood): 0.07 ± 0.02 %ID/g
- tissue uptake at 3 h ([1]; blood, 37 kBq, 3 h post-administration, read-out: Blood): 0.05 %ID/g
- tissue uptake at 24 h ([1]; blood, 37 kBq, 24 h post-administration, read-out: Blood): 0.02 %ID/g
- tissue uptake at 1 h ([1]; blood, 1 h, DL-lysine co-administered, read-out: Blood): 0.36 ± 0.15 %ID/g
- tissue uptake at 3 h ([1]; blood, 3 h (Blocking): 10 nmol unlabeled PSC-PEG2-TOC co-administered, read-out: Blood): 0.13 ± 0.02 %ID/g
- tissue uptake at 3 h ([1]; blood, 3 h, DL-lysine co-administered, read-out: Blood): 0.07 ± 0.02 %ID/g
- tissue uptake at 6 h ([1]; blood, DL-lysine co-administered, read-out: Blood): 0.05 ± 0.03 %ID/g
- tissue uptake at 24 h ([1]; blood, 24 h, DL-lysine co-administered, read-out: Blood): 0.01 %ID/g
- tissue uptake at 3 h ([1]; bone marrow, 37 kBq, 3 h (No Lys), Table S4 study, read-out: Bone marrow): 4.17 ± 1.51 %ID/g
- tissue uptake at 1 h ([1]; bone marrow, 1 h, DL-lysine co-administered, read-out: Bone marrow): 2.42 ± 0.32 %ID/g
- tissue uptake at 3 h ([1]; bone marrow, 3 h (Blocking): 10 nmol unlabeled PSC-PEG2-TOC co-administered, read-out: Bone marrow): 0.99 ± 0.42 %ID/g
- tissue uptake at 3 h ([1]; bone marrow, 3 h, DL-lysine co-administered, read-out: Bone marrow): 4.13 ± 1.55 %ID/g
- tissue uptake at 6 h ([1]; bone marrow, DL-lysine co-administered, read-out: Bone marrow): 1.69 ± 0.34 %ID/g
- tissue uptake at 24 h ([1]; bone marrow, 24 h, DL-lysine co-administered, read-out: Bone marrow): 0.87 ± 0.6 %ID/g
- tissue uptake at 3 h ([1]; bone, 37 kBq, 3 h (No Lys), Table S4 study, read-out: Bone): 0.62 ± 0.24 %ID/g
- tissue uptake at 1 h ([1]; bone, 1 h, DL-lysine co-administered, read-out: Bone): 1.48 ± 0.34 %ID/g
- tissue uptake at 3 h ([1]; bone, 3 h (Blocking): 10 nmol unlabeled PSC-PEG2-TOC co-administered, read-out: Bone): 0.16 ± 0.1 %ID/g
- tissue uptake at 3 h ([1]; bone, 3 h, DL-lysine co-administered, read-out: Bone): 0.48 ± 0.05 %ID/g
- tissue uptake at 6 h ([1]; bone, DL-lysine co-administered, read-out: Bone): 0.35 ± 0.06 %ID/g
- tissue uptake at 24 h ([1]; bone, 24 h, DL-lysine co-administered, read-out: Bone): 0.16 ± 0.04 %ID/g
- tissue uptake at 1 h ([1]; brain, 37 kBq, 1 h post-administration, read-out: Brain): 0.04 ± 0.01 %ID/g
- tissue uptake at 3 h ([1]; brain, 37 kBq, 3 h (No Lys), Table S4 study, read-out: Brain): 0.08 ± 0.06 %ID/g
- tissue uptake at 3 h ([1]; brain, 37 kBq, 3 h post-administration, read-out: Brain): 0.02 %ID/g
- tissue uptake at 24 h ([1]; brain, 37 kBq, 24 h post-administration, read-out: Brain): 0.01 %ID/g
- tissue uptake at 1 h ([1]; brain, 1 h, DL-lysine co-administered, read-out: Brain): 0.04 ± 0.01 %ID/g
- tissue uptake at 3 h ([1]; brain, 3 h (Blocking): 10 nmol unlabeled PSC-PEG2-TOC co-administered, read-out: Brain): 0.03 ± 0.01 %ID/g
- tissue uptake at 3 h ([1]; brain, 3 h, DL-lysine co-administered, read-out: Brain): 0.03 ± 0.01 %ID/g
- tissue uptake at 6 h ([1]; brain, DL-lysine co-administered, read-out: Brain): 0.02 %ID/g
- tissue uptake at 24 h ([1]; brain, 24 h, DL-lysine co-administered, read-out: Brain): 0.01 %ID/g
- tissue uptake at 1 h ([1]; heart, 37 kBq, 1 h post-administration, read-out: Heart): 0.2 ± 0.05 %ID/g
- tissue uptake at 3 h ([1]; heart, 37 kBq, 3 h (No Lys), Table S4 study, read-out: Heart): 0.2 ± 0.13 %ID/g
- tissue uptake at 3 h ([1]; heart, 37 kBq, 3 h post-administration, read-out: Heart): 0.08 ± 0.02 %ID/g
- tissue uptake at 24 h ([1]; heart, 37 kBq, 24 h post-administration, read-out: Heart): 0.03 ± 0.01 %ID/g
- tissue uptake at 1 h ([1]; heart, 1 h, DL-lysine co-administered, read-out: Heart): 0.28 ± 0.08 %ID/g
- tissue uptake at 3 h ([1]; heart, 3 h (Blocking): 10 nmol unlabeled PSC-PEG2-TOC co-administered, read-out: Heart): 0.07 ± 0.03 %ID/g
- tissue uptake at 3 h ([1]; heart, 3 h, DL-lysine co-administered, read-out: Heart): 0.15 ± 0.03 %ID/g
- tissue uptake at 6 h ([1]; heart, DL-lysine co-administered, read-out: Heart): 0.07 ± 0.05 %ID/g
- tissue uptake at 24 h ([1]; heart, 24 h, DL-lysine co-administered, read-out: Heart): 0.03 ± 0.01 %ID/g
- tissue uptake at 1 h ([1]; kidneys, 37 kBq, 1 h post-administration, read-out: Kidneys): 20.6 %ID/g
- tissue uptake at 3 h ([1]; kidneys, 37 kBq, 3 h (No Lys), Table S4 study, read-out: Kidneys): 22.1 ± 1.92 %ID/g
- tissue uptake at 3 h ([1]; kidneys, 37 kBq, 3 h post-administration, read-out: Kidneys): 15.8 ± 1.11 %ID/g
- tissue uptake at 24 h ([1]; kidneys, 37 kBq, 24 h post-administration, read-out: Kidneys): 1.5 %ID/g
- tissue uptake at 1 h ([1]; kidneys, 1 h, DL-lysine co-administered, read-out: Kidneys): 13.3 ± 3.8 %ID/g
- tissue uptake at 3 h ([1]; kidneys, 3 h (Blocking): 10 nmol unlabeled PSC-PEG2-TOC co-administered, read-out: Kidneys): 40.9 ± 9.92 %ID/g
- tissue uptake at 3 h ([1]; kidneys, 3 h, DL-lysine co-administered, read-out: Kidneys): 9.84 ± 0.88 %ID/g
- tissue uptake at 6 h ([1]; kidneys, DL-lysine co-administered, read-out: Kidneys): 5.44 ± 0.63 %ID/g
- tissue uptake at 24 h ([1]; kidneys, 24 h, DL-lysine co-administered, read-out: Kidneys): 1.25 ± 0.86 %ID/g
- tissue uptake at 1 h ([1]; large intestine, 37 kBq, 1 h post-administration, read-out: Large intestine): 1.24 ± 0.12 %ID/g
- tissue uptake at 3 h ([1]; large intestine, 37 kBq, 3 h (No Lys), Table S4 study, read-out: Large intestine): 1.92 ± 0.56 %ID/g
- tissue uptake at 3 h ([1]; large intestine, 37 kBq, 3 h post-administration, read-out: Large intestine): 6.32 ± 0.68 %ID/g
- tissue uptake at 24 h ([1]; large intestine, 37 kBq, 24 h post-administration, read-out: Large intestine): 0.83 ± 0.45 %ID/g
- tissue uptake at 1 h ([1]; large intestine, 1 h, DL-lysine co-administered, read-out: Large intestine): 1.99 ± 0.31 %ID/g
- tissue uptake at 3 h ([1]; large intestine, 3 h (Blocking): 10 nmol unlabeled PSC-PEG2-TOC co-administered, read-out: Large intestine): 0.99 ± 0.46 %ID/g
- tissue uptake at 3 h ([1]; large intestine, 3 h, DL-lysine co-administered, read-out: Large intestine): 3.97 ± 0.97 %ID/g
- tissue uptake at 6 h ([1]; large intestine, DL-lysine co-administered, read-out: Large intestine): 3.34 ± 0.63 %ID/g
- tissue uptake at 24 h ([1]; large intestine, 24 h, DL-lysine co-administered, read-out: Large intestine): 1.01 ± 0.67 %ID/g
- tissue uptake at 1 h ([1]; liver, 37 kBq, 1 h post-administration, read-out: Liver): 0.36 ± 0.05 %ID/g
- tissue uptake at 3 h ([1]; liver, 37 kBq, 3 h (No Lys), Table S4 study, read-out: Liver): 0.31 ± 0.03 %ID/g
- tissue uptake at 3 h ([1]; liver, 37 kBq, 3 h post-administration, read-out: Liver): 0.23 ± 0.02 %ID/g
- tissue uptake at 24 h ([1]; liver, 37 kBq, 24 h post-administration, read-out: Liver): 0.08 ± 0.04 %ID/g
- tissue uptake at 1 h ([1]; liver, 1 h, DL-lysine co-administered, read-out: Liver): 0.44 ± 0.08 %ID/g
- tissue uptake at 3 h ([1]; liver, 3 h (Blocking): 10 nmol unlabeled PSC-PEG2-TOC co-administered, read-out: Liver): 0.3 ± 0.07 %ID/g
- tissue uptake at 3 h ([1]; liver, 3 h, DL-lysine co-administered, read-out: Liver): 0.25 ± 0.05 %ID/g
- tissue uptake at 6 h ([1]; liver, DL-lysine co-administered, read-out: Liver): 0.17 ± 0.02 %ID/g
- tissue uptake at 24 h ([1]; liver, 24 h, DL-lysine co-administered, read-out: Liver): 0.06 ± 0.01 %ID/g
- tissue uptake at 1 h ([1]; lung, 37 kBq, 1 h post-administration, read-out: Lung): 3.58 ± 1.64 %ID/g
- tissue uptake at 3 h ([1]; lung, 37 kBq, 3 h (No Lys), Table S4 study, read-out: Lung): 4.61 ± 3.75 %ID/g
- tissue uptake at 3 h ([1]; lung, 37 kBq, 3 h post-administration, read-out: Lung): 0.38 ± 0.07 %ID/g
- tissue uptake at 24 h ([1]; lung, 37 kBq, 24 h post-administration, read-out: Lung): 1.46 ± 0.4 %ID/g
